Data as given in PMC4058081, “p600 regulates spindle orientation in apical neural progenitors and contributes to neurogenesis in the developing neocortex” (Biology Open, 2014).

Assays:
[1] = biological target: T1, recombinant p600^4480–5183 (human, UniProt Q5T4S7 4480-5183); experiment: SEC; analytical SEC, Superdex 200 5/150, 4°C, 10 mM HEPES pH 7.5, 0.15 M NaCl, 1 mM DTT; proteins alone or mixed at 50 µM and incubated 30 min on ice; fractions analysed by SDS-PAGE; settings: both partners purified
T1 construct: Elutes mostly as a monomer (~75 kDa) in SEC; also called C-terminal portion of p600; source: E. coli BL21-Rosetta, purified (glutathione sepharose, PreScission cleavage, Resource Q)
T1 sequence (Q5T4S7 4480-5183): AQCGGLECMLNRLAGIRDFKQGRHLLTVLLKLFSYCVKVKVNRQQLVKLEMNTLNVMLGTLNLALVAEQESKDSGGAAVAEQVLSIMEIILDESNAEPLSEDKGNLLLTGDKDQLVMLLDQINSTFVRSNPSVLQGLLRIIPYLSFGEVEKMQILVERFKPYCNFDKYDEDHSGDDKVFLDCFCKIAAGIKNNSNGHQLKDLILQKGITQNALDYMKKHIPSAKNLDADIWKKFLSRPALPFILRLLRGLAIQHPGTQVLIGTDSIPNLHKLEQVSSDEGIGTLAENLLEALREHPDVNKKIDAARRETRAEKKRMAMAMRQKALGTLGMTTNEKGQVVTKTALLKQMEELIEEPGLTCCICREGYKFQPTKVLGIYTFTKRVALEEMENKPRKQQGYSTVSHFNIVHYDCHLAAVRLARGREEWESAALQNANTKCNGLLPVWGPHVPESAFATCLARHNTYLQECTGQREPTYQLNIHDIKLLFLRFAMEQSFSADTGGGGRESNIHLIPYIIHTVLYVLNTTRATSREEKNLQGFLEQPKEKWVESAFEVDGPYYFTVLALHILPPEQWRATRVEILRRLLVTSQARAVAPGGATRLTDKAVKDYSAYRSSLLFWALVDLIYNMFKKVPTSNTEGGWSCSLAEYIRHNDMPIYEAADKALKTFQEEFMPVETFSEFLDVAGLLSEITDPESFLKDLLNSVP

[2] = biological target: the molecule itself; experiment: static light scattering; Ndel1^1–201 alone in solution; data not included

Kd [1]: 30 to 50 µM
B1: Ndel1^1–201 (coiled-coil region of Ndel1) (domain or fragment, UniProt Q9GZM8 1-201, looked up)
chain: MDGEDIPDFSSLKEETAYWKELSLKYKQSFQEARDELVEFQEGSRELEAELEAQLVQAEQRNRDLQADNQRLKYEVEALKEKLEHQYAQSYKQVSVLEDDLSQTRAIKEQLHKYVRELEQANDDLERAKRATIVSLEDFEQRLNQAIERNAFLESELDEKESLLVSVQRLKDEARDLRQELAVRERQQEVTRKSAPSSPTL
notes: Dimeric in solution by static light scattering (data not included); also called N-terminal coiled-coil domain of Ndel1; source: E. coli BL21-Rosetta, purified (Ni-NTA, ion exchange)
stoichiometry N [2]: 2
